Assay results taken from publication PMC1665450, “Molecular modeling and characterization of Vibrio cholerae transcription regulator HlyU” (BMC Structural Biology, 2006).

Molecular target: the molecule itself
Test: not stated; unpublished results (Saha & Chakrabarti); HlyU after cleavage of the N-terminal His6-tag

B1: Vibrio cholerae transcription regulator HlyU (natural protein)
chain: MPYLKGAPMNLQEMEKNSAKAVVLLKAMANERRLQILCMLLDNELSVGELSSRLELSQSALSQHLAWLRRDGLVNTRKEAQTVFYTLSSTEVKAMIELLHRLYCQANQ
notes: also called Vc-HlyU; not shown: His6, N-terminal, cleaved
stoichiometry N: 2
